This note sets out measurements from patent CN108586611A (UNIV JINAN; ZHUHAI TAINUO MAIBO BIOTECHNOLOGY CO LTD; …, dated 2018).

The target in the test is 破伤风毒素 (tetanus toxin) (Clostridium tetani, UniProt P04958 2-1315).
破伤风毒素 (tetanus toxin), sequence (P04958 2-457 limits assumed, chain 1 of 2): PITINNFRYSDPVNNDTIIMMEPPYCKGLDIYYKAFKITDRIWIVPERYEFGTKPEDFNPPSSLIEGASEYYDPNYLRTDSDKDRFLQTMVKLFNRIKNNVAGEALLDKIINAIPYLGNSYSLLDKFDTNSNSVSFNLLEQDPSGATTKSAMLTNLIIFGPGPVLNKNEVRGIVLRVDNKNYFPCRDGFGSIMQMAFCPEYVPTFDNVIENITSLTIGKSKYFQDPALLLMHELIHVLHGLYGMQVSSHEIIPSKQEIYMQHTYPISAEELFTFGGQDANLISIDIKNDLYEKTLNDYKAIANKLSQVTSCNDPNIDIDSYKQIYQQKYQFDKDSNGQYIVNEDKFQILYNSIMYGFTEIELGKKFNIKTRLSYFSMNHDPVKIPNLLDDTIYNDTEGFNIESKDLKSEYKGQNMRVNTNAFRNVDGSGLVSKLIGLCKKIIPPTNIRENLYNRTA
破伤风毒素 (tetanus toxin), sequence (P04958 458-1315 limits assumed, chain 2 of 2): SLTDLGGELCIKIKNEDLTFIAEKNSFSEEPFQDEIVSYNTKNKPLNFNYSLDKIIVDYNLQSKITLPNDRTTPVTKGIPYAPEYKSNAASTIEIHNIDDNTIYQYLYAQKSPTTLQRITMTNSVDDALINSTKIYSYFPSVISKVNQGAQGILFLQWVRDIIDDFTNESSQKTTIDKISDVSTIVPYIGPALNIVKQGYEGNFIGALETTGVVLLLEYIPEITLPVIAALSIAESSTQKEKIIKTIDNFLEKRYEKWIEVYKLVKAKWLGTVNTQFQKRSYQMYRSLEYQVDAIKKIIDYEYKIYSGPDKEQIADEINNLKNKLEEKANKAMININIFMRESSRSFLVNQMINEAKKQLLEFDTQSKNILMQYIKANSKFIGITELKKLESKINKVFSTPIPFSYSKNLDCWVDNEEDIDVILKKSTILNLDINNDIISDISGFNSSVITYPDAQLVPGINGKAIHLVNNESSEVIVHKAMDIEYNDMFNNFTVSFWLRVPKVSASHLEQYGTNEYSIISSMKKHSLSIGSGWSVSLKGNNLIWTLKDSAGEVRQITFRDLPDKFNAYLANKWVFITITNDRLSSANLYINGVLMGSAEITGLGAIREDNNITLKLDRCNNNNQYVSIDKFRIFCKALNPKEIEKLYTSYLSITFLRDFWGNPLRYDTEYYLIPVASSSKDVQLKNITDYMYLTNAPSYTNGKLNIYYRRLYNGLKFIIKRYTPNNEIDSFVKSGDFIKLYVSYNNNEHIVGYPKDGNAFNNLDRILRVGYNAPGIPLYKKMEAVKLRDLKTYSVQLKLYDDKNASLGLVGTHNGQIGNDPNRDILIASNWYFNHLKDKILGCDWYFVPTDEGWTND

B1: TRN1014抗体 (重组全人源抗破伤风毒素单克隆抗体) (antibody, V domains shown)
VH: EVQLVESGGDLVPPGGSLRLSCVASGFTFRNYWMNWVRQAPGQGLQWVASIKDDGTESQYLESVKGRFTISRDNAKNSLSLQMDSLRAEDTALYFCTRVGGFYFGSERYYKGGDDVWGQGTTVTVSS
VL: DIVLTQSPSSLSASVGDRVTFTCRASQTISNYLHWYQQKPGQAPELLIFAASNRQGGVPSRFRGSGSGTDFTLTISPLEADDFATYYCQQSYSSPRTFGQGTKLEIK
B1: the affinity, expressed as Kd, was 1.1 nM; the koff – broadly, a measure of how fast the partners let go of each other – amounted to 6.07e-05 s⁻¹; the kon (as a rule, the rate constant with which the complex forms) came out at 55100 M⁻¹ s⁻¹.
